Measured values reported in the supplement of paper PMC12764529.
± gives the half width of the 95% confidence interval.

What was measured:
[1] = folding stability dG unfold from chymotrypsin proteolysis; higher = more stable
Outline: (§1)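 Unfolding free energy was derived, per protease or combined, by relating Bayesian-fitted K50 values from sequencing counts to a sequence-predicted unfolded-state K50 and a shared folded-state K50. The underlying digests exposed cysteine-free mini-proteins under 80 residues, in a PA-tagged cDNA display construct, to trypsin and chymotrypsin at 11 threefold-diluted concentrations and to a no-protease condition. A filter kept only designs with AlphaFold2 dimer inter-PAE above 15.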

[2] = folding stability dG unfold (combined trypsin and chymotrypsin); higher = more stable
Outline: as §1

[3] = folding stability dG unfold from trypsin proteolysis; higher = more stable
Outline: as §1

Sequence | folding stability dG unfold [1] [kcal/mol] | folding stability dG unfold [2] [kcal/mol] | folding stability dG unfold [3] [kcal/mol]
SAGSIEIYIIYPPEDPDQPPTEEEIRSIARSLARQLGLPPKDFPIDVEWRRIDPEDGIYVYEITIEFPSAGG [r19_244_TrROS] | 3.57 ± 0.062 | 3.27 ± 0.1 | 2.74 ± 0.059
SAGGMKINPKVFGNYVLVEVENPETGSRILKLVEFNPGPKTATVKVFYIDPNGKPTLLEEKTFSLPDLSAGG [r13_768_TrMRF] | 2.736 ± 0.025 | 2.32 ± 0.071 | 1.36 ± 0.018
SAGGSAPGWYPITYEFEDNNKEIKIEVYYPKEDPMVGVDIEDPDGKVIFTIWFPADNAEKALKEILSAGGSA [r15_940_TrROS] | 1.49 ± 0.071 | 1.39 ± 0.092 | 1.23 ± 0.07
SAGGSAGGSAGGMKVLVIFEDNKIPRVVSEEELKKIPLPFKIIPLGPDPEEAKKILEKSSAGGSAGGSAGGS [r10_419_TrMRF] | 0.34 ± 0.39 | 0.434 ± 0.27 | 0.616 ± 0.13
SAGGSAGGSAGGKVTIEFPTSRVELYPLPGPFVLAEVSFPNRKLLALAHPDGDEILILPISAGGSAGGSAGG [r7_683_TrMRF] | 1.05 ± 0.082 | 1.07 ± 0.042 | 0.929 ± 0.028
SAGGSAGGSAGGKPKTVKIIRDKKTNRLLIERDGKVYEFDVDNVEVREVTLEDLKEEELSAGGSAGGSAGGS [r10_512_TrROS_Hall] | 1.2 ± 0.045 | 0.88 ± 0.14 | 0.576 ± 0.14
SEGSVRLEFTFTLPDGTRLTVEVTVHYDAATGEFHVSVSVRVEPLPDTSRPWEERPVRLPDGTWVSAADLSA [r9_898_TrMRF] | 2.28 ± 0.1 | 2.5 ± 0.13 | 2.54 ± 0.071
SAGMVITVPSDVPVEELLELARELARELGGGRVEVRTHPDNPEIVTATIDIPGTGKRILIINAPPGVLASAG [r5_912_TrMRF] | 2.37 ± 0.028 | 2.52 ± 0.048 | 2.66 ± 0.038
SAGSLKPSDLVLLRSRPVRVGGKPVVLVDLVVFHPDGSASRAVLTLPSGVGPPVVGVVPVPALVRLIASSAG [r5_831_TrMRF] | 2.14 ± 0.084 | 1.95 ± 0.12 | 1.53 ± 0.047
SAGGDPDEIKKVIITARIYRPDPDGNIHTATIPIIIEGPLDEVIEKVAKEIEEAFGTKIVEITVEKGSAGGS [r16_511_TrMRF] | 1.2 ± 0.07 | 1.36 ± 0.14 | 1.54 ± 0.047
SAGGMLPGEPEVELVLEIEIDVPPGEISAEELERLLRELFPGAEVVDVRVEEEGGKLRIEVVIRLPPSAGGS [r8_202_TrROS_Hall] | 2.67 ± 0.058 | 3.17 ± 0.13 | 3.42 ± 0.14
SAGKKVVIIEIEEVTNEDGEKEYKIRVLVKDEETGEVTEREITVKEGESIEDLIKKALEEGADEVIIVPSAG [r5_37_TrROS_Hall] | 4.15 ± 0.14 | 4.12 ± 0.25 | 3.98 ± 0.13
SAMKPGEKVKIKIITFEKKKDPKTGEEKIEMKEIEIEATITEVEEKDGKVTVKIKIENLPPGAMIIIEKSAG [r14_412_TrROS_Hall] | 3.64 ± 0.087 | 3.18 ± 0.086 | 2.05 ± 0.069
SAGGSAGGSAGGSTITLRIEGLSKEEIEELARKLGAKVVSFDEKNKTVTIELPPGAKLLSAGGSAGGSAGGS [r4_3_TrROS_Hall] | 2.19 ± 0.044 | 2.09 ± 0.084 | 1.88 ± 0.054
SAGTLVLVIEVPLEDVTPEQAEEIAEEAARFLREAGLPEGIEVEDVRVERLPDGRLLVLLPMRILEDESAGG [r19_87_TrMRF] | 2.59 ± 0.059 | 2.41 ± 0.14 | 1.97 ± 0.056
SAGGSAGGSAGASLKEELGFAEVLSRSPTPDTEPLLLKHPEGGELVTVEVDAATAVEWLESAGGSAGGSAGG [r11_630_JUSTAS] | 0.424 ± 0.17 | 0.354 ± 0.24 | 0.343 ± 0.091
SAGGSPKPVPVTITSVTSTSVEVYLPSTGATFTFNLNEEKTLTLPDGSKIYFTFNSDGSVTATVIEYGSAGG [r13_352_TrMRF] | 4.88 ± 0.051 | 4.83 ± 0.12 | 5.03 ± 0.73
SAGGSAELAKALGLKVTVEVEEEDGYLTVKVTVTGPNGEEKTFTMVIKIEPLPPPKKVKKGDKKNKSAGGSA [r15_843_TrROS_Hall] | 3.74 ± 0.13 | 3.62 ± 0.21 | 2.44 ± 0.26
VDPDDPEYQRFVYFVQELAKTIVEEHQEEGPTVDELYITVDPNNVKIEPVDMPPDEWEEHQKEGRPVIPIRS [r1_134_TrROS] | 0.187 ± 0.33 | -0.0608 ± 0.28 | 0.179 ± 0.14
SAGGSAGGSAGGGSSMITLERESEPGETFEFNFPGVSEVTVTEVIPGDGKVTVKVEVTSPSAGGSAGGSAGG [r7_292_JUSTAS] | 0.0882 ± 0.09 | 0.537 ± 0.11 | 0.782 ± 0.059
SAGMKAYIVSVEKNEDGTETIKLKVYFLDKNGKVVETKEITIKKGETIKITFPNGKTITVPAKDLKLVKSAG [r5_137_TrROS_Hall] | 3.703 ± 0.033 | 3.24 ± 0.082 | 2.02 ± 0.083

Sequence | folding stability dG unfold [1] [kcal/mol] | folding stability dG unfold [2] [kcal/mol] | folding stability dG unfold [3] [kcal/mol]
SAGGSSSSMVVVTLTFPPDVSPEEVIEKIAATPGVGAQPISYDPATGTFTIRVGSTDPKAVEEVLGSAGGSA [r2_305_JUSTAS] | 0.562 ± 0.17 | 0.748 ± 0.074 | 0.878 ± 0.022
SAGGSAGGSDDDDAKKAMEQMKPPPIPIKIQVKIEYDPSLGWLKVEIHFFGFGLRITGTIPIDSAGGSAGGS [r20_230_TrROS] | 4.56 ± 0.31 | 4.08 ± 0.48 | 3.33 ± 0.16
SAEVRTVTDANGTQRTVTKTPDGTETVTTRPVPAPPPPPTVTVEVEYDAENGTLTVRLPDGSKLEFTFEDSA [r9_56_TrROS_Hall] | 0.982 ± 0.046 | 0.742 ± 0.26 | -0.118 ± 0.23
SAGGSAIVIPVKSWEEFVEALKNAPASVEIIADLPDGNVIKAKIDPSKGPKIIITEVFPVPPELAGSAGGSA [r15_577_TrMRF] | 1.06 ± 0.053 | 0.859 ± 0.11 | 0.515 ± 0.036
SAGGSAGGSAMKFPKGAKIEIVVTEDKVYVRIKTPGGKEIEVEMTLEELKKLGFEVEIVEEESAGGSAGGSA [r18_125_TrROS_Hall] | 2.27 ± 0.061 | 2.19 ± 0.15 | 1.75 ± 0.086
SAGGSAGGSMTIPESEFKQMSEEELKKLLLENPEPVTVVTSDPEILERIKKIFEKLGIKITLESAGGSAGGS [r12_97_JUSTAS] | 2.63 ± 0.12 | 2.59 ± 0.14 | 2.4 ± 0.11
SAGGKEKKPKVELKITSISEFEGGLVIEGEATTPTKKIKVLAVYDPSTGKITVWRETPEGIEPLAEFGSAGG [r13_445_TrMRF] | 2.401 ± 0.018 | 2.18 ± 0.049 | 1.76 ± 0.059
SAGGSAGGSMTVTYTEVGDQLVVTTPDGRRYVITLSGDVTYDPATGTVTVPPGETMTPVPVPASAGGSAGGS [r20_158_JUSTAS] | 2.13 ± 0.025 | 1.99 ± 0.039 | 1.61 ± 0.021
SAGKSKPILVEITFPNGEKAKVLAVEFPNTVYVFAVVTSKDGSKYLVEAIIDVSPTKIKIFTKSYPLESAGG [r19_385_TrMRF] | 4.1 ± 0.043 | 3.64 ± 0.081 | 2.56 ± 0.1
SAGGSAGGSAGKKITLPNATITYDEETGEVTITVDGKTITLPPGAKIEVDENGNLTIYLPSAGGSAGGSAGG [r17_34_TrROS_Hall] | 2.71 ± 0.075 | 2.55 ± 0.12 | 2.45 ± 0.1
SAGGSEKIEVEVERREDGYLVLRVRLELFDENGELVEEIEIEVVLPREELEKMSLEELLKRLLEELSAGGSA [r2_421_TrROS_Hall] | 5.25 ± 0.38 | 5.08 ± 0.67 | 3.99 ± 0.17
SAGSVTITLNIPPGQDVTLNIGGKEATLTVDPETKVYTMTDPQTGDVWTVTVDPNSPVASVTYTAAPAGSAG [r5_302_JUSTAS] | 1.57 ± 0.15 | 1.37 ± 0.11 | 0.996 ± 0.039
SAGGSAGGSAGMRLVTITLTTEKPIFDENGNPIGTTTRTVVLEREVPEPEVPEVPLYQALSAGGSAGGSAGG [r11_131_JUSTAS] | 0.189 ± 0.18 | 0.261 ± 0.17 | 0.304 ± 0.18
SKKVKITEITFPEGATFDGKKVTVTIKIVDEETGTVTITEITVDKNGKVTIKEVTVKVDPKTGKIVEITPSA [r9_122_TrROS_Hall] | 2.02 ± 0.04 | 1.8 ± 0.19 | 1.74 ± 0.06
SAGGMPTTSSSAVKLDGGSDSVTTTTLPDGSRVVYIVSSDGKVYKATVTGGTTTWTEVKTVPPAELSSAGGS [r16_48_JUSTAS] | 2.406 ± 0.018 | 2.13 ± 0.051 | 1.53 ± 0.031
SAGGGSMTPTTTTKTYNVPPELAQKILDGYPLGDKELAAALGLPPDVEVTLVSSDEDTLTVEITIPASAGGS [r16_679_JUSTAS] | 4.05 ± 0.068 | 3.81 ± 0.075 | 3.48 ± 0.14
SAGGSAGGPNYFVRITIKMRKPNGKPIGEFPIWIPFKSKEQARSLADELAQMPGIEKVDIELVPSAGGSAGG [r6_475_TrROS] | 2.68 ± 0.031 | 2.53 ± 0.051 | 2.22 ± 0.025
SAGGLKIVETKTEPEIGKRYVVIEVYKPETGKPILYVVPLDLEKGENSPEAVAKAILKELKLPPGVKASAGG [r13_362_TrMRF] | 1.71 ± 0.16 | 1.24 ± 0.18 | 0.58 ± 0.082
SAGGSAGGSAMPFRVKVPPGSRVLVTRYLPGGLEREEVELSEDEDELVVEAESGVVEVRVLDSAGGSAGGSA [r18_124_TrMRF] | 0.969 ± 0.28 | 0.977 ± 0.21 | 0.938 ± 0.07
SAGGSAGGSMTIEEIKKLAEELGIEKVEIEKVKDGYYKIKIYNKKTGKKIEIIIKVNKDGKIVSAGGSAGGS [r12_170_TrROS_Hall] | 3.9 ± 0.091 | 3.61 ± 0.26 | 2.27 ± 0.17
SAGGSTIENPNGWRIEIDIIPIKVVYRKDPNGKPKEPVAPPVWIIHIKIEFPDKNGEKKEATFMLFSAGGSA [r2_218_TrROS] | 4.61 ± 0.056 | 4.06 ± 0.13 | 2.62 ± 0.069
